Measurements reported in US8586570B2, “Sox-based kinase sensor” (Massachusetts Institute of Technology, priority 2006, dated 2013).

What was measured:
Assay in all cases: Cross-reactivity of PKCα-S10 with PKC isozymes
Type in all cases: biochemical
Conditions in all cases: peptide 1 μM, isozyme 2 ng
PKCβII = PKCβII (Homo sapiens, UniProt P05771)
Procedure: (§1) With the kinetic parameters at hand it is possible to test the cross-reactivity of PKCα-S10 with PKC isozymes. In 12 separate reactions PKCα-S10 (1 μM) is subjected to phosphorylation with PKCα, PKCβI, PKCβII, PKCγ, PKCδ, PKCε, PKCζ, PKCη, PKCθ, PKCι, PKCμ and PKCν (2 ng).

PKCζ = biological target: T1, PKCζ (Homo sapiens, UniProt Q05513)
T1 sequence (Q05513 1-592): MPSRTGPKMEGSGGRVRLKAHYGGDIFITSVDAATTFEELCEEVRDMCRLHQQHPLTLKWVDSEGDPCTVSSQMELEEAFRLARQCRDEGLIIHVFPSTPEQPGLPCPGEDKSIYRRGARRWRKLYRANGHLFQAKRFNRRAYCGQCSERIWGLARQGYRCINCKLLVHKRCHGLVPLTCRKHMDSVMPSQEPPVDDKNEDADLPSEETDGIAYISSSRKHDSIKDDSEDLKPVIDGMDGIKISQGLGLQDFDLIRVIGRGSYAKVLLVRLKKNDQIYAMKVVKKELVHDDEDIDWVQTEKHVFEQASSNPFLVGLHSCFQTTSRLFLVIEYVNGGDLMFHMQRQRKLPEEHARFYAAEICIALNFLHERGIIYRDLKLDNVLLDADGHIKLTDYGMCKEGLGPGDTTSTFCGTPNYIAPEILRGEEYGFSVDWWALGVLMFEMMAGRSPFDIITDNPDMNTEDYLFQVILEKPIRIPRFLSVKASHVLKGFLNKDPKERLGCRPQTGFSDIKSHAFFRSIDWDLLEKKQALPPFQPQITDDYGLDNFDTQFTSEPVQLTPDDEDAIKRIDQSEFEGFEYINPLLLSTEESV
Procedure: as §1

PKCμ = biological target: T2, PKCμ (Homo sapiens, UniProt Q15139)
T2 sequence (Q15139 1-912): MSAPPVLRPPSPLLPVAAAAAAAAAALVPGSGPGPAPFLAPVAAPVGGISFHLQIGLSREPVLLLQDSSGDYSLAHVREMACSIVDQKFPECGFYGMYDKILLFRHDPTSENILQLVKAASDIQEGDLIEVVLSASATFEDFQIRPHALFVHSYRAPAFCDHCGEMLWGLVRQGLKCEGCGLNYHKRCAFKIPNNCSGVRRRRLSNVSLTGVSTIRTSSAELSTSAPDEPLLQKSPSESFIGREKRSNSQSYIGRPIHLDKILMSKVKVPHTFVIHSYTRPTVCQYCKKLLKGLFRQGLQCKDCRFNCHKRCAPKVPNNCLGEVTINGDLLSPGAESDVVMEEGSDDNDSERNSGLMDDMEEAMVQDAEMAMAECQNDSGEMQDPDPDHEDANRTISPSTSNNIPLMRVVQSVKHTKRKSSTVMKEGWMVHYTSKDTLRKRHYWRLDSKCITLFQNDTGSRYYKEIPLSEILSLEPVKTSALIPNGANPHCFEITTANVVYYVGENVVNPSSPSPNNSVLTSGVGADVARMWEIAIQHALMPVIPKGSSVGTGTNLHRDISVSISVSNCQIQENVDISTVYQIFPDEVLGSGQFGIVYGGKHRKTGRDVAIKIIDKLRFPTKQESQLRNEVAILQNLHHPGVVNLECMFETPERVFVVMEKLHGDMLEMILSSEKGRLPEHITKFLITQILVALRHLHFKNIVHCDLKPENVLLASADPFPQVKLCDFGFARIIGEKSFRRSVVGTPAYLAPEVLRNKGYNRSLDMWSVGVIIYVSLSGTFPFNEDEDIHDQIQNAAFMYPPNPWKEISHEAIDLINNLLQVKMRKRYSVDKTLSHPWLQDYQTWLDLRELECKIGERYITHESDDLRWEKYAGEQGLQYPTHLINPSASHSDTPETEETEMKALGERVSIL
Procedure: as §1

PKCν = biological target: T3, PKCν (Homo sapiens, UniProt O94806)
T3 sequence (O94806 1-890): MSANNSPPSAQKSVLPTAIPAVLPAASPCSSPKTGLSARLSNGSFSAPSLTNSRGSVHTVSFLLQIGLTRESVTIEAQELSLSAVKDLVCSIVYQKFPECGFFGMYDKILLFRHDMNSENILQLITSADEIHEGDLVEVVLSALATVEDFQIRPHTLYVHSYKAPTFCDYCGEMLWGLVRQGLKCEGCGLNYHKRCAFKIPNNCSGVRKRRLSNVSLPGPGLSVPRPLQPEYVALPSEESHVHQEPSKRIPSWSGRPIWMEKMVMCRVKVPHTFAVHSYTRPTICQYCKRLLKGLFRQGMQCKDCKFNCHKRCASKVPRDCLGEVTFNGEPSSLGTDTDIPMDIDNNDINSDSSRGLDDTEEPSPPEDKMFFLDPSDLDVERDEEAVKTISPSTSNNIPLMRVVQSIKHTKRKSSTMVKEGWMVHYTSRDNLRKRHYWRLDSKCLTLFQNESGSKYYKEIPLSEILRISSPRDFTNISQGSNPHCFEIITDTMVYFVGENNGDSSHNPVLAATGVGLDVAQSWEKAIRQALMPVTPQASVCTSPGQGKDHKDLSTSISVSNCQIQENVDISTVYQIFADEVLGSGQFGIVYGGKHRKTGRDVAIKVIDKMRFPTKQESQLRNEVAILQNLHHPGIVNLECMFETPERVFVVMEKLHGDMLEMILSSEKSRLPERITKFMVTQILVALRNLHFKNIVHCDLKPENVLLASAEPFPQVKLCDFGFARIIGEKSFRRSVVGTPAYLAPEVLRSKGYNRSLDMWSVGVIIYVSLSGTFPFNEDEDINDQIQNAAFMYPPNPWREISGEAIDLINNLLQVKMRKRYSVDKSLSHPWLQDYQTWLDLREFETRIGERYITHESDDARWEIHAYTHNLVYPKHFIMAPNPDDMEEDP
Procedure: as §1

Chain of PKCβII (P05771 1-673 isoform P05771-2): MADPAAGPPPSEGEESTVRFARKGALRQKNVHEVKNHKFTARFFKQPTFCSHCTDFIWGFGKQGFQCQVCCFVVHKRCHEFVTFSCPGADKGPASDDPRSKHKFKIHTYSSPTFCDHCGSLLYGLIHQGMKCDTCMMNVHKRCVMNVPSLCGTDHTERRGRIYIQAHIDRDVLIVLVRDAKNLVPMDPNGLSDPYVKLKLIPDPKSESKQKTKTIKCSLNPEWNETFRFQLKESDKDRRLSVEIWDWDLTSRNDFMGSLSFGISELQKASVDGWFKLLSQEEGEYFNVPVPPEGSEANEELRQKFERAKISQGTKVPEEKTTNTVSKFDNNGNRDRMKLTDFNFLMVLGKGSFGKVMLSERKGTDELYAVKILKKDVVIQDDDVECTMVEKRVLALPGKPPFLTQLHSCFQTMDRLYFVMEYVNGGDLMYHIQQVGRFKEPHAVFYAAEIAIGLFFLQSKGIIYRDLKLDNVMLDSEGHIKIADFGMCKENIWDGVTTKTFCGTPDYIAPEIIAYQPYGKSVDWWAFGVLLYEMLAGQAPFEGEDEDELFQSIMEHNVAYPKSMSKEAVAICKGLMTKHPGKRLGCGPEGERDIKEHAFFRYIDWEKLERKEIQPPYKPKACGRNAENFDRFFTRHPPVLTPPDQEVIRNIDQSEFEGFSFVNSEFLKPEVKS

- activity of isozyme on peptide compared with PKCα (PKCβII): comparable activities to that of PKCα
- activity of isozyme on peptide (PKCζ): very little activity
- activity of isozyme on peptide (PKCμ): no activity
- activity of isozyme on peptide (PKCν): no activity
Substance: Ac-RRR-C(Sox)-ASFRRKA-CONH2 [PKCα-S10(P10), Sox chemosensor with extended recognition domain for PKCα]
